From publication PMC11770177, “Skeletal progenitor LRP1 deficiency causes severe and persistent skeletal defects with Wnt pathway dysregulation” (Bone Research, 2025)

Molecular target: T1, low-density lipoprotein (LDL) receptor-related protein 1 (LRP1), purified human full-length (human, UniProt Q07954 20-4544)
T1 construct: LRP1, human, purified full-length protein coated onto microtiter plates; also called full-length LRP1; Full-length sLRP1; source: purified
Experiment: ELISA; solid-phase binding assay; human full-length LRP1 (10 nmol/L) coated overnight at 4 °C onto microtiter plates in 50 mmol/L Tris-HCl (pH 7.5)/150 mmol/L NaCl/10 mmol/L CaCl2; 0-200 nmol/L Wnt in 5% BSA blocking solution, 30 min at RT; bound Wnt detected with a specific antibody; signal of wells without LRP1 subtracted; apparent KD (K_D,app), extrapolated from a one-phase decay nonlinear fit
Conditions: both partners purified

T1 sequence (Q07954 20-4544): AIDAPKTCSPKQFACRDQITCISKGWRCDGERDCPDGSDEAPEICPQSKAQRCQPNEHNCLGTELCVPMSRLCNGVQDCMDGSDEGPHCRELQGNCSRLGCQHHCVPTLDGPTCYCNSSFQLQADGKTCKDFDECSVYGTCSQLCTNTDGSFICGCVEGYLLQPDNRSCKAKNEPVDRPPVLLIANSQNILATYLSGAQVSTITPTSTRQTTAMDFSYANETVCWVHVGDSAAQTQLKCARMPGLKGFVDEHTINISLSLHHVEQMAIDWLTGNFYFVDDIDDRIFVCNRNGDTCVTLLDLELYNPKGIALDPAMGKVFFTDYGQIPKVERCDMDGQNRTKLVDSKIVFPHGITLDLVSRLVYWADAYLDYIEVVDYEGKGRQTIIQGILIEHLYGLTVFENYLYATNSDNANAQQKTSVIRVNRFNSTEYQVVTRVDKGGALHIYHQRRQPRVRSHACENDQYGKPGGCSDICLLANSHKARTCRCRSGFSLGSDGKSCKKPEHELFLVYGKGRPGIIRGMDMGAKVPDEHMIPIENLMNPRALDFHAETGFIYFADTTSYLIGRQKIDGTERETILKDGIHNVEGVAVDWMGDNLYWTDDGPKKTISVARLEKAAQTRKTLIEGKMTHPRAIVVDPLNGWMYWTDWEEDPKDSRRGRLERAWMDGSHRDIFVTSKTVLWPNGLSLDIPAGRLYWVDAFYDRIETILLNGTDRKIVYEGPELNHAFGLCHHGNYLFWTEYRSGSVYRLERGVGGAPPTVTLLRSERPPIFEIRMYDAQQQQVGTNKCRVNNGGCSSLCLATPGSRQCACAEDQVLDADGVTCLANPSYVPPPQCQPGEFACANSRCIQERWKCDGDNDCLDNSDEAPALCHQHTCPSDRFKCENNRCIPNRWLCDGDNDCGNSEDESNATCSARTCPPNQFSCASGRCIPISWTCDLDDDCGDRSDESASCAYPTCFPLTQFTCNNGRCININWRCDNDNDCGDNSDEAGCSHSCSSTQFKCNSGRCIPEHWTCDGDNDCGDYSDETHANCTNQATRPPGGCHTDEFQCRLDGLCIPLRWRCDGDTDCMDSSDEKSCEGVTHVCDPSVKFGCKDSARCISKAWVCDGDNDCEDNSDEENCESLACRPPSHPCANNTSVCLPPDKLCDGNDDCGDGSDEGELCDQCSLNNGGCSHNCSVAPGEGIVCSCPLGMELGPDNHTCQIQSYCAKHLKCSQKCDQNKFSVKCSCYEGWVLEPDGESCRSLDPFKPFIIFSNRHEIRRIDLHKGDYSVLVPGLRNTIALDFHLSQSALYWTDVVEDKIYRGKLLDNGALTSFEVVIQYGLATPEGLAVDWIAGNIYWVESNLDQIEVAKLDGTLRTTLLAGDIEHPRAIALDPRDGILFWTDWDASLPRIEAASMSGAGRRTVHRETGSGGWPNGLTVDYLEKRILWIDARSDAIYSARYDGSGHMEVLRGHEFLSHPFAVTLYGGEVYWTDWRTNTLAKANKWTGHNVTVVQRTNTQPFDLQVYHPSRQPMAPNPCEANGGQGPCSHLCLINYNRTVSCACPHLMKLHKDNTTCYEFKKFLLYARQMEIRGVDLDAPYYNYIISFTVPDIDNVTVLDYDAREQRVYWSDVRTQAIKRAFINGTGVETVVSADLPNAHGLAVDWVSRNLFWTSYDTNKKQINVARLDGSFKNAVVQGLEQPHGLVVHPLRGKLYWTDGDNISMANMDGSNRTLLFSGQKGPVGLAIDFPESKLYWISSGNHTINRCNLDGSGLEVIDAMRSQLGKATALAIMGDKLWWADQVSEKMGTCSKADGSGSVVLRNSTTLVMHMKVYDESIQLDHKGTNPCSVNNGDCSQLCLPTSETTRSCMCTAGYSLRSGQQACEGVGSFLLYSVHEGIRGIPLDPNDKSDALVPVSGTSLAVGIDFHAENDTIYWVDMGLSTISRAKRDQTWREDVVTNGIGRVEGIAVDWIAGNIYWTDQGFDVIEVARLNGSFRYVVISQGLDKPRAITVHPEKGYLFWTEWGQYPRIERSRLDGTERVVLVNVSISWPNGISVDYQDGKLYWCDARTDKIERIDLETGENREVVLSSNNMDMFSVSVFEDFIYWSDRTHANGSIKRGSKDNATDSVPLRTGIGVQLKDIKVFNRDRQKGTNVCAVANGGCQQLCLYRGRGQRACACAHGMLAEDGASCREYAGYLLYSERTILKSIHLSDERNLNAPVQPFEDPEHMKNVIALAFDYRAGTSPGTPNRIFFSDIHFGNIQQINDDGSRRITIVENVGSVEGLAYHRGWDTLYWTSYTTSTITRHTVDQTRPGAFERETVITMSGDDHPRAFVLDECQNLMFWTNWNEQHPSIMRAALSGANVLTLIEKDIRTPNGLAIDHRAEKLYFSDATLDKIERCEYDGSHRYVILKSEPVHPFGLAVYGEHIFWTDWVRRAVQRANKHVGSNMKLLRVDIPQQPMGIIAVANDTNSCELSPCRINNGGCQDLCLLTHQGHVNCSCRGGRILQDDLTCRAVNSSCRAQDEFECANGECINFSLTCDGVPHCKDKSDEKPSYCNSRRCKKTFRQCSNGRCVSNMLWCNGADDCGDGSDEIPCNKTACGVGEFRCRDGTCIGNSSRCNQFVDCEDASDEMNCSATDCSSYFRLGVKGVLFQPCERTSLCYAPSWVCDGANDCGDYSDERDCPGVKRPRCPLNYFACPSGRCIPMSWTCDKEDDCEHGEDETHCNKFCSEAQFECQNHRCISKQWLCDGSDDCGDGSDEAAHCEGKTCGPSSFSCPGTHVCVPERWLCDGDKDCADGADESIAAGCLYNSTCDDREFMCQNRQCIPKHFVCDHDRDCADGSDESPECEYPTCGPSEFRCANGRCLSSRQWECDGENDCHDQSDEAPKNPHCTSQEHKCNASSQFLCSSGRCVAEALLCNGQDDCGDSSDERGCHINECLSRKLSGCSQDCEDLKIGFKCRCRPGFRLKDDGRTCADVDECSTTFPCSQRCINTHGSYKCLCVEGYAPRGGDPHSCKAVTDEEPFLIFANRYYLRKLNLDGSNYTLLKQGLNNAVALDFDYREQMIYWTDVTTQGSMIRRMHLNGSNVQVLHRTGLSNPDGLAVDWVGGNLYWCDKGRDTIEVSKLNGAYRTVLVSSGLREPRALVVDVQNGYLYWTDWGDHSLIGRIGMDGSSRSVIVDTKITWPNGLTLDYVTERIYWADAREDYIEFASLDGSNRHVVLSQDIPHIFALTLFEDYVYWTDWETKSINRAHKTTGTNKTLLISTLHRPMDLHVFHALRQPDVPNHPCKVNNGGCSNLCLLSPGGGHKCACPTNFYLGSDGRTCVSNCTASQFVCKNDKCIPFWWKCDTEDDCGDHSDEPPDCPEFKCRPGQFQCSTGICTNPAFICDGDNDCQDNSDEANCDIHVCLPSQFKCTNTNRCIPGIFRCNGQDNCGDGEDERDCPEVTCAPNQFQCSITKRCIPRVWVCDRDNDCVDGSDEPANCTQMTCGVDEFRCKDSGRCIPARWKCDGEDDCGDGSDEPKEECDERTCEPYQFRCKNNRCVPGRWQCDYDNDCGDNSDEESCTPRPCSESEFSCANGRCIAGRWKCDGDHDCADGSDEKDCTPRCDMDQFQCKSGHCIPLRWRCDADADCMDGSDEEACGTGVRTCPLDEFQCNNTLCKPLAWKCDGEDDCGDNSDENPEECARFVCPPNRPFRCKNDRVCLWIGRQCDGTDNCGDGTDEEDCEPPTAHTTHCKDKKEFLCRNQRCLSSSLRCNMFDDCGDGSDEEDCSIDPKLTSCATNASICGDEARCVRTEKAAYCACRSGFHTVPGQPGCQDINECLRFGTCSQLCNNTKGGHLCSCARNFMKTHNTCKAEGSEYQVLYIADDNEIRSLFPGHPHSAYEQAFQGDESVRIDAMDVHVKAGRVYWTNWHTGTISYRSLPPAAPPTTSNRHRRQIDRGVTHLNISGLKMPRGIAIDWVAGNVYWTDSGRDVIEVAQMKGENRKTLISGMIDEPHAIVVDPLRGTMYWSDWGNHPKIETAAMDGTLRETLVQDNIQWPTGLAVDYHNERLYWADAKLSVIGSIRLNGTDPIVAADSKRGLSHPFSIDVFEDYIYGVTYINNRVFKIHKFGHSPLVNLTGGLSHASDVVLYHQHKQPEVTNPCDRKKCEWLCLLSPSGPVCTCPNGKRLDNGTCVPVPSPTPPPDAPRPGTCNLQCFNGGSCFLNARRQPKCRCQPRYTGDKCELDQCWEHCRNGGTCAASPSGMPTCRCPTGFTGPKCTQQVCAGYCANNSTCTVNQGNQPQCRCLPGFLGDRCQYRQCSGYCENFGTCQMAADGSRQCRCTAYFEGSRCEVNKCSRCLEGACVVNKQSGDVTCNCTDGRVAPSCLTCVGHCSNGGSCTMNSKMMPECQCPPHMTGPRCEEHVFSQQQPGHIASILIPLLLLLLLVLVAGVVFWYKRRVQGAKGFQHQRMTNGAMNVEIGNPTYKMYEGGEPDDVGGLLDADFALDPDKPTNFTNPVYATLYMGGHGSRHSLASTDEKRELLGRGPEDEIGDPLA

Binder	Kd [nM]
Wnt5a (ligand, UniProt P41221 62-380, looked up, Wnt5a, purified protein; also called purified Wnt5a; source: purified) IIGAQPLCSQLAGLSQGQKKLCHLYQDHMQYIGEGAKTGIKECQYQFRHRRWNCSTVDNTSVFGRVMQIGSRETAFTYAVSAAGVVNAMSRACREGELSTCGCSRAARPKDLPRDWLWGGCGDNIDYGYRFAKEFVDARERERIHAKGSYESARILMNLHNNEAGRRTVYNLADVACKCHGVSGSCSLKTCWLQLADFRKVGDALKEKYDSAAAMRLNSRGKLVQVNSRFNSPTTQDLVYIDPSPDYCVRNESTGSLGTQGRLCNKTSEGMDGCELMCCGRGYDQFKTVQTERCHCKFHWCCYVKCKKCTEIVDQFVCK	31
Wnt3a (ligand, UniProt P56704 19-352, looked up, Wnt3a, purified protein; also called purified Wnt3a; source: purified) SYPIWWSLAVGPQYSSLGSQPILCASIPGLVPKQLRFCRNYVEIMPSVAEGIKIGIQECQHQFRGRRWNCTTVHDSLAIFGPVLDKATRESAFVHAIASAGVAFAVTRSCAEGTAAICGCSSRHQGSPGKGWKWGGCSEDIEFGGMVSREFADARENRPDARSAMNRHNNEAGRQAIASHMHLKCKCHGLSGSCEVKTCWWSQPDFRAIGDFLKDKYDSASEMVVEKHRESRGWVETLRPRYTYFKVPTERDLVYYEASPNFCEPNPETGSFGTRDRTCNVSSHGIDGCDLLCCGRGHNARAERRREKCRCVFHWCCYVSCQECTRVYDVHTCK	> 200
Wnt11 (ligand, UniProt O96014 25-354, looked up, Wnt11, purified protein; also called purified Wnt11; source: purified) IKWLALSKTPSALALNQTQHCKQLEGLVSAQVQLCRSNLELMHTVVHAAREVMKACRRAFADMRWNCSSIELAPNYLLDLERGTRESAFVYALSAAAISHAIARACTSGDLPGCSCGPVPGEPPGPGNRWGGCADNLSYGLLMGAKFSDAPMKVKKTGSQANKLMRLHNSEVGRQALRASLEMKCKCHGVSGSCSIRTCWKGLQELQDVAADLKTRYLSATKVVHRPMGTRKHLVPKDLDIRPVKDSELVYLQSSPDFCMKNEKVGSHGTQDRQCNKTSNGSDSCDLMCCGRGYNPYTDRVVERCHCKYHWCCYVTCRRCERTVERYVCK	42
